The text below walks through data of patent US6867016.

The target in this assay is rabbit anti-CS141 peptide antiserum raised against unconjugated peptide SEQUENCE ID NO 26. Briefly: competition Western blot; antiserum pre-incubated with varying concentrations of peptide immunogen. On the technique in general: A western blot detects proteins with antibodies after separation by electrophoresis.

Take GPTMCFEDRMIMSPVKNNVGRGLNIALVNGTTGAVLGQK [CS141 synthetic peptide SEQUENCE ID NO 26]: the concentration of peptide at which antibody binding to the band was inhibited came out at 2.54 µM.
